Some results are limits rather than exact numbers.

The target of assay [1] is T1, human LGR5 (leucine-rich repeat containing G-protein-coupled receptor 5) (human, UniProt O75473 22-561).
T1 sequence: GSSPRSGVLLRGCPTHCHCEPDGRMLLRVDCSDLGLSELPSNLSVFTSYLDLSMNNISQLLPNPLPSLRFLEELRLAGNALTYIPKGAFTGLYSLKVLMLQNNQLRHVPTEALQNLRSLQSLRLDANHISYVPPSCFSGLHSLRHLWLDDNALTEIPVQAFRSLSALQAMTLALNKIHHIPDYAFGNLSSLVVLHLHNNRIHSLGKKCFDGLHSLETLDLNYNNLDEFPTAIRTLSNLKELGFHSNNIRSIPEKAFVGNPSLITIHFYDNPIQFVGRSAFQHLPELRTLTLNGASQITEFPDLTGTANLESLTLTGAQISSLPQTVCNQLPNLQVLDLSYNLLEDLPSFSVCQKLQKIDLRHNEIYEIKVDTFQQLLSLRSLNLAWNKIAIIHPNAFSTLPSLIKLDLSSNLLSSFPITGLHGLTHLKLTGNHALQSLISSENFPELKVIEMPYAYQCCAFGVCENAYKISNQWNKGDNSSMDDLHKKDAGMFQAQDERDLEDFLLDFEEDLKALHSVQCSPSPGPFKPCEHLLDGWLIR
The assay is described as follows: cell-based or functional assay.

The target in assay [2] is T1, human LGR5 (leucine-rich repeat …). In words: FACS on CHO cells expressing recombinant LGR5.

B1: 18G7Ch (antibody, human IgG1, kappa, V domains shown)
VH: QVQLQQSGAELVKPGASVKISCKATGYTFSGYWIEWVKQRPGHGLEWIGEILPGSDSTNYNEKFKGKATFTADTSSNTVYMQFSSLTSEDSAVYYCARSGYYGSSQYWGQGTTLTVSS
VL: NIVLTQSPASLAVSLGQRATISCRASESVDSYGNSFMHWYQQKPGQPPKLLIYLTSNLESGVPARFSGSGSRTDFTLTIDPVEADDAATYYCQQNNEDPRTFGGGTKLEIKR
With B1, the “IC50 (nM) of cell viability, MTS assay, primary antibody + secondary ADC (NL-MMAF)” value in assay [1] worked out at 0.115 nM.

B2: 18G7H6A1 (antibody, human IgG1, kappa, V domains shown)
VH: EVQLVQSGAEVKKPGESLRISCKGSGYSFTAYWIEWVRQAPGKGLEWIGEILPGSDSTNYNEKFKGHVTISADKSISTAYLQWSSLKASDTAVYYCARSGYYGSSQYWGQGTLVTVSS
VL: DIVLTQSPASLAVSPGQRATITCRASESVDSYGNSFMHWYQQKPGQPPKLLIYLTSNLESGVPDRFSGSGSGTDFTLTINPVEANDAATYYCQQNAEDPRTFGGGTKLEIKR
One may read the EC50 as the midpoint of the concentration-response curve. As for B2, the EC50 in assay [2] was less than 10 nM.

The record behind these values is patent US20200114017A1 (BIONOMICS, published 2020).
